From US20240067747A1 (SHANGHAI HUAOTA BIOPHARMACEUTICAL, published 2024)

T1: CD73 on the cell surface of Calu6 cells (UniProt P21589 27-549, limits assumed)
T1 sequence (looked up): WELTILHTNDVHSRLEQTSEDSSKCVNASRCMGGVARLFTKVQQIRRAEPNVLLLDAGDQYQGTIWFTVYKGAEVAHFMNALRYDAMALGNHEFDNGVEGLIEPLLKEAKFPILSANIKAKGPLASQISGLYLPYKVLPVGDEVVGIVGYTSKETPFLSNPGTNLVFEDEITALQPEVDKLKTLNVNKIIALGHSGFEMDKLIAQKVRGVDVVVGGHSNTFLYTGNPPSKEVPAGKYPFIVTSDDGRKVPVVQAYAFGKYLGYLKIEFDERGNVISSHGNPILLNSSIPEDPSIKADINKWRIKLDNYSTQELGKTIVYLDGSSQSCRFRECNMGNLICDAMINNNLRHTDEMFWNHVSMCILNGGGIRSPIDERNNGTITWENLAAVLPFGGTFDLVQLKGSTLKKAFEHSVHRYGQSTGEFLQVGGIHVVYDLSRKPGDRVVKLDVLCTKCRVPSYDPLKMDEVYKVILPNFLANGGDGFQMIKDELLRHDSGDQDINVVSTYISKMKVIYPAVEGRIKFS

T2: recombinant human CD73 protein (ACRO Biosystems, item No. CD3-H52H7) (human, UniProt P21589 27-547)
T2 construct: also called recombinant CD73 protein
T2 sequence (looked up): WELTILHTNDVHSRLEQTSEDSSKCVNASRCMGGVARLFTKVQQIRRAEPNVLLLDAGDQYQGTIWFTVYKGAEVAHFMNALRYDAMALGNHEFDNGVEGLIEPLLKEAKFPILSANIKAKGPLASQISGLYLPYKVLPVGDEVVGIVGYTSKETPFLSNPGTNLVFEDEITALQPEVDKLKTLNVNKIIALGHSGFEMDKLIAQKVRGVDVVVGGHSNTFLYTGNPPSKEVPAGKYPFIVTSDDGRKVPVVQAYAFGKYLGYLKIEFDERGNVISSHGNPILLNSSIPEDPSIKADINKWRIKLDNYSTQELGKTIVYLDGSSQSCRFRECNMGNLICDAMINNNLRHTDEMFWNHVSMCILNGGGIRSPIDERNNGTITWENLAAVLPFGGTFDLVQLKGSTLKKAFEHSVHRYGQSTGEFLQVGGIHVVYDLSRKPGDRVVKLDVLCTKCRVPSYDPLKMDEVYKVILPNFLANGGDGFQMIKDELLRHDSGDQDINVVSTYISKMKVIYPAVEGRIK

T3: Cynomolgus CD73 protein (Novoprotein, item No. CI21) (cynomolgus, UniProt A0A2K5V5U7 27-547)
T3 construct: Bought protein
T3 sequence: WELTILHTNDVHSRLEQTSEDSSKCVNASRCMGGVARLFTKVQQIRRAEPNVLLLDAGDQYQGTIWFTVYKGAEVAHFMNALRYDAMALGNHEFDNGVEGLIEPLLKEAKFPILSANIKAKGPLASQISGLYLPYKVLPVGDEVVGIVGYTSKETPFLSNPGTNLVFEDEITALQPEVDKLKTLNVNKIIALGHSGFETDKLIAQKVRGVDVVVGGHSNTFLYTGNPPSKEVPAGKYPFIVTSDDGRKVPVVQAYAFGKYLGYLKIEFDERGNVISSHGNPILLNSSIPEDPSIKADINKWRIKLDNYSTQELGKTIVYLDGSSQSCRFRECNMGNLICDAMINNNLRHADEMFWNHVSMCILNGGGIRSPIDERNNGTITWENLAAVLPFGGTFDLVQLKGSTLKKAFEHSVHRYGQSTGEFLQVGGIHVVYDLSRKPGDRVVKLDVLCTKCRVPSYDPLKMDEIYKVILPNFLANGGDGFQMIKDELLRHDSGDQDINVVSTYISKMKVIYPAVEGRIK


Tests used:
[1] = molecular target: T1, CD73 on the cell surface of Calu6 cells; assay: cell-based or functional assay
[2] = molecular target: T4, Lysozyme from chicken egg (Sigma, L3790) (chicken, UniProt P00698 19-147); assay: SPR, Biacore 8K, lysozyme immobilized on CM5 chip
T4 construct: Non-target molecule, amine-coupled to a CM5 chip
T4 sequence (P00698 19-147 limits assumed): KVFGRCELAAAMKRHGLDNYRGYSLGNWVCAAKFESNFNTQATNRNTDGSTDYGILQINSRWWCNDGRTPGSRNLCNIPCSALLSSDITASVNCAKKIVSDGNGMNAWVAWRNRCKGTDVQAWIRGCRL
Experimental: The non-specific adsorption effect of antigen-binding proteins and non-target molecules were determined by using the SPR method.
The series sensor chip CM5 (GE, #BR-1005-30) was equilibrated at room temperature for 20-30 min and then loaded into the Biacore 8K (GE) instrument. Lysozyme solution (Sigma, #L3790) from egg and trypsin inhibitor type 1-S (Sigma, #T-2327) from Glycine max were immobilized onto the CM5 chip using an amino coupling kit (GE, #BR-1000-50). The injection buffer was HBS-EP (1×) (GE, #BR-1006-69) and four equilibration cycles were set up. The polyclonal rabbit anti-lysozyme (ABcam, Ab391), anti-trypsin inhibitor antibodies (LifeSpan Biosciences, #LS-C76609), chimeric antibodies and humanized antibodies were diluted with equilibration buffer to 1000 nM, and the flow rate was set at 5 μL/min and injection channels 1, 2 and 3, Flow Cell 1 and 2 were selected. The association time was 10 min and the dissociation time was 10 min.

[3] = molecular target: T2, recombinant human CD73 protein (ACRO …); assay: ELISA, plate coated with CD73 protein, anti-human-IgG-Fc-HRP
Experimental: The ELISA well plate was coated with 30 ul of 2 ug/ml CD73 protein (ACRO, #CD3-H52H7-100μg) solution and incubated overnight at 4° C. Then, the well plate was washed 3 times with PBST, blocked with 5% MILK/PBS at room temperature for 1 h, and then washed 3 times with PBST. […] The diluted antigen-binding protein solutions were then added to the ELISA well plate, 30 ul per well, and incubated at room temperature for 30 min. After the incubation, the well plate was washed 3 times. Anti-human-IgG-Fc-HRP was added and incubated at room temperature for 50 min. After the incubation, the well plate was washed 3 times. The TMB solution was added. The reaction was then terminated with 2M HCl and the OD450 reading was checked.

[4] = molecular target: T3, Cynomolgus CD73 protein (Novoprotein, …); assay: SPR, Biacore T200, antibody captured on protein A chip, cynomolgus CD73 as analyte, 1:1 model
Experimental: In the tests, the assay buffer HBS-EP+ (pH 7.4) and the protein A chip (manufacturer: GE, item No.: 29-1275-56) were used.
The temperatures of a sample chamber and a flow path were set at 25° C., and the protein A chip respectively captured antigen-binding proteins as ligands and immobilized at about 100 RU. […] After association for 120 s at a flow rate of 30 μL/min, dissociation was carried out for 600 s. Regeneration was then carried out for 60 s with 10 mM Glycine (pH 1.5) at a flow rate of 50 μL/min to implement multi-cycle kinetic detection. A 1:1 binding model was selected for fitting analysis in a Fit local mode to acquire the association rate constant (ka), dissociation rate constant (kd) and dissociation equilibrium rate constant (KD).

Row | Binder | Endocytosis rate (%) [1] [%] | binding result [2] | EC50 [3] [mg/L] | Kd [4] [nM] | koff [4] [s⁻¹] | kon [4] [M⁻¹ s⁻¹]
1 | 900725 (humanized anti-CD73 antigen-binding protein) (antibody, V domains shown) VH: QVQLVQSGAEVKKPGASVKLSCKASGYTFTSYWIHWVRQAPGQGLEWIGMIHPNSGSTYYNEKFKGRATLTVDKSTSTAYMELSSLRSEDTAVYYCARYYGSDYEWYFDVWGQGTTVTVSS VL: DIQMTQSPSSMSASVGDRVTITCKASQNVRTAVVWYQQKPGKAPKALIYLASNRHTGVPDRFSGSGSGTDFTLTISSLQPEDFATYFCLQHWNYPYTFGQGTKLEIK | 37.5 | no binding (tested: 1000 nM antibody; 20 RU) | 0.327 | 0.368 | 0.000156 | 425000
2 | 900728 (humanized anti-CD73 antigen-binding protein) (antibody, V domains shown) VH: QVQLVQSGAEVKKPGASVKVSCKASGYTFTSYWIHWVRQAPGQGLEWIGMIHPNSGSTYYNEKFQGRVTMTVDKSTSTAYMELSSLRSEDTAVYYCARYYGSDYEWYFDVWGQGTTVTVSS VL: DIQMTQSPSSLSASVGDRVTITCKASQNVRTAVVWYQQKPGKAPKALIYLASNRHTGVPDRFSGSGSGTDFTLTISSLQPEDFATYYCLQHWNYPYTFGQGTKLEIK | 33.9 | no binding (tested: 1000 nM antibody; 20 RU) | 0.29 | 0.561 | 0.000381 | 678000
3 | 900726 (humanized anti-CD73 antigen-binding protein) (antibody, V domains shown) VH: QVQLVQSGAEVKKPGASVKLSCKASGYTFTSYWIHWVRQAPGQGLEWIGMIHPNSGSTYYNEKFKGRATLTVDKSTSTAYMELSSLRSEDTAVYYCARYYGSDYEWYFDVWGQGTTVTVSS VL: DIQMTQSPSSLSASVGDRVTITCKASQNVRTAVVWYQQKPGKAPKALIYLASNRHTGVPDRFSGSGSGTDFTLTISSLQPEDFATYYCLQHWNYPYTFGQGTKLEIK | – | no binding (tested: 1000 nM antibody; 20 RU) | 0.361 | 2 | 0.0032 | 1.6e+06
4 | 900727 (humanized anti-CD73 antigen-binding protein) (antibody, V domains shown) VH: QVQLVQSGAEVKKPGASVKVSCKASGYTFTSYWIHWVRQAPGQGLEWIGMIHPNSGSTYYAQKFQGRVTITVDKSTSTAYMELSSLRSEDTAVYYCARYYGSDYEWYFDVWGQGTTVTVSS VL: DIQMTQSPSSMSASVGDRVTITCKASQNVRTAVVWYQQKPGKAPKALIYLASNRHTGVPDRFSGSGSGTDFTLTISSLQPEDFATYFCLQHWNYPYTFGQGTKLEIK | – | no binding (tested: 1000 nM antibody; 20 RU) | 0.364 | 0.798 | 0.00074 | 927000
5 | 900567 (human-mouse chimeric anti-CD73 antigen-binding protein expressed from 124A9 variable regions) (antibody, V domains shown) VH: QVQLQQPGAELVKPGASVKLSCKASGYTFTSYWIHWVKQRPGQGLDWIGMIHPNSGSTYYNEKFKSKATLTVDKSSSTAYMQLSSLTSEDSAVYYCARYYGSDYEWYFDVWGTGTTVTVSS VL: DIVMTQSQKFMSTSVGDRVSITCKASQNVRTAVVWYQQNPGQSPKALIYLASNRHTGVPDRFTGSGSGTDFTLTISNVHSEDLADYFCLQHWNYPYTFGGGTKLEIK | 26.9 | no binding (tested: 1000 nM antibody; 20 RU) | 0.282 | 0.709 | 0.000606 | 855000
